The source of these data is patent publication US20220281980A1 (Bristol-Myers Squibb, published 2022).

As a reminder, the EC50 is the concentration giving half of the maximal effect. In general, Kd refers to the free concentration of one partner at which half of the binding sites on the other are occupied at equilibrium, for simple one-to-one binding.

In assay [1] the target is T1, human MICA*009 expressed on CHO cells (human, UniProt Q29983 24-382).
T1 construct: also called MICA allele 009
T1 chain: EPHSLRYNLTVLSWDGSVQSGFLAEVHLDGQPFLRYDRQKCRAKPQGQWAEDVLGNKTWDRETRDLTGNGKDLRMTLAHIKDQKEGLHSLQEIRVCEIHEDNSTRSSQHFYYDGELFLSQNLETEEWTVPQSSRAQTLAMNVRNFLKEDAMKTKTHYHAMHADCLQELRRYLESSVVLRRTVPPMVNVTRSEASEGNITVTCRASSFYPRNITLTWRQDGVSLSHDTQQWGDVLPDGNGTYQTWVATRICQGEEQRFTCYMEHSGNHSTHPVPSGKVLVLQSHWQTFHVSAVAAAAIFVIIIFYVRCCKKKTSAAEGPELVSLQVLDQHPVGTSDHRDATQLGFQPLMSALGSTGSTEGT
The experiment in a line: flow cytometry, transfected CHO cells. (In flow cytometry, cells or beads pass a laser one at a time.)

The target in assay [2] is T2, cynomolgus monkey MICA/B clone #6 expressed on CHO cells (cynomolgus monkey).
T2 construct: whole, on cells; also called cyno#6; CHO-cyno MICA clone #6
The assay can be described thus: flow cytometry, transfected CHO cells.

The target in assay [3] is T3, cynomolgus monkey MICA/B clone #4 expressed on CHO cells (cynomolgus monkey).
T3 construct: whole, on cells; also called cyno#4; CHO-cyno MICA clone #4
The assay can be described thus: saturation binding of 125I-labelled antibody on CHO-MICA Cyno #4 cells, 25K per well; fit of total binding, non-specific binding not subtracted. How it is done: (§1) Nonspecific binding was determined by binding in the presence of a titration of a 100 fold molar excess of unlabeled antibody and was subtracted from total counts per minute (CPM) to calculate specific binding. A linear standard curve of ¹²⁵I-MICA.36 concentration versus CPM was used to extrapolate specific activity, maximal nM bound ¹²⁵I-MICA.36 and thereby calculate receptor number per cell.

Assay [4] concerns the target T4, human MICA*008 expressed on CHO cells (human, UniProt Q29983 24-331).
T4 construct: also called MICA allele 008
T4 chain: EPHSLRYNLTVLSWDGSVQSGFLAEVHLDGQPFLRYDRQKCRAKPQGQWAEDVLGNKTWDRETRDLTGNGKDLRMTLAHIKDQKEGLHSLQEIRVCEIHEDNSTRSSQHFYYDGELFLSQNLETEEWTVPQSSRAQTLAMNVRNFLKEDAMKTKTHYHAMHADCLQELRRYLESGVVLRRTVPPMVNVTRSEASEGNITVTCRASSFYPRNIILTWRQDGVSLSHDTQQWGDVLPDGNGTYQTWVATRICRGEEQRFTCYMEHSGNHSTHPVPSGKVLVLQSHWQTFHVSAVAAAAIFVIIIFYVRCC
The assay can be described thus: saturation binding of 125I-labelled antibody on CHO-MICA*008 cells, 12,500 cells/well; fit of total binding, non-specific binding not subtracted. The method, then: as §1
(§2) Specific activity of the iodinated MICA.36 was determined by plotting antibody titrations against the associated CPMs in a standard curve (FIG. 7A). The specific activity was calculated to be 164,214 CPM in 1 nM of ¹²⁵I-MICA.36. The number of receptors per cell was calculated by the following equation: (Bmax)×(Avogadro's number)×(Assay Volume)/# of cells per well.

The target of assay [5] is T2, cynomolgus monkey MICA/B clone #6 …. The assay can be described thus: saturation binding of 125I-labelled antibody on CHO-MICA Cyno #6 cells, 25K per well (Scatchard analysis); unit from the x axis 'nM Radioligand'. How it is done: as §1, §2
For assay [6], the target named is T5, human MICB expressed on transduced cells (human, UniProt Q29980 23-382).
T5 construct: also called MICB*005
T5 chain: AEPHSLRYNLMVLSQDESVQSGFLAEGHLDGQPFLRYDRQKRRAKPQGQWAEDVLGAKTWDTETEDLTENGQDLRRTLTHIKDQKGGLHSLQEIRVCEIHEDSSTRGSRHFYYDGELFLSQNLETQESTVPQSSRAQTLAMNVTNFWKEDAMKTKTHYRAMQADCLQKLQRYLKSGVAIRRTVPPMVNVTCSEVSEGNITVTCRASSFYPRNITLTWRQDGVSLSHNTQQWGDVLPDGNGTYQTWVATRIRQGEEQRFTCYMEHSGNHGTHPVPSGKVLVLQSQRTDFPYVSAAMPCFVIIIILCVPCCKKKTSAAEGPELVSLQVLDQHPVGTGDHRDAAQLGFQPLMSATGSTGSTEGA
The assay can be described thus: saturation binding of 125I-labelled antibody on CHO-MICB cells, 12500 per well (Scatchard analysis); x axis 'Ab' carries no unit, nM taken from paragraph 587. How it is done: as §1, §2

The target of assay [7] is T6, human MICA/B endogenously expressed on SW480 cells (human, UniProt Q29983 24-383).
T6 construct: whole, on cells
T6 sequence (looked up): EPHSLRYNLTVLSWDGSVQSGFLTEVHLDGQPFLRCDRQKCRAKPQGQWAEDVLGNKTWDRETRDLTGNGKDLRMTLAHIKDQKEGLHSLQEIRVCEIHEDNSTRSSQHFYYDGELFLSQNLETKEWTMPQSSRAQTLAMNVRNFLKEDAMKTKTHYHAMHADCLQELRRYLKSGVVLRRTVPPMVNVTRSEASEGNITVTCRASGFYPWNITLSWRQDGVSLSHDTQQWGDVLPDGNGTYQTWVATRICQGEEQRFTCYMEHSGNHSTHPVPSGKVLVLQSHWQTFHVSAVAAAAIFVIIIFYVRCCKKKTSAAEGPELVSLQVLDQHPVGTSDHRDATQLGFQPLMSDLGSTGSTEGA
The assay can be described thus: saturation binding of 125I-labelled antibody on SW480 cells, 25,000 cells/well; fit of total binding, non-specific binding not subtracted; x axis without unit. How it is done:
as §1, §2

The target in assay [8] is T4, human MICA*008 expressed on CHO cells. The assay can be described thus: saturation binding of 125I-labelled antibody on CHO-MICA*008 cells, 12,500 cells/well (Scatchard analysis); specific = total minus binding with 100-fold unlabelled antibody; unit from the x axis 'nM Antibody'. How it is done: as §1, §2
Assay [9] has as its target T6, human MICA/B endogenously expressed on …. The experiment in a line: saturation binding of 125I-labelled antibody on SW480 cells, 25,000 cells/well (Scatchard analysis); x axis 'Ab' carries no unit, nM taken from paragraph 587; non-specific binding is nearly as high as specific binding. How it is done:
as §1, §2

The target of assay [10] is T2, cynomolgus monkey MICA/B clone #6 …. The assay can be described thus: flow cytometry (GMFI, FACSCalibur), CHO cells with cyno MICA #6; unit from the x axis; curve from about 1500 at 0.1 ug/ml to about 40500 GMFI at 40 ug/ml.

B1: 71C2 (antibody, V domains shown)
VH: EVQLVESGGGLVQPGRSLRLSCAASGFTFNNYAMHWVRQAPGKGLEWVSGITWNSDSIGYADSVKGRFTISRDNAKNSLYLQMNSLRAEDTALYYCAKDSVLLWFGGMDVWGQGTTVTVSS
VL: not shown
notes: Hybridoma antibody
As to B1, the EC50 in assay [1] amounted to 10.2 nM; in assay [2], 232 nM.

B2: 24G11 (antibody, V domains shown)
VH: EVQLVQSGAEVKKPGESLKISCKGSGYSFTNYWIGWVRQMPGKGLEWLGIIHPGDSYTRYSPSFQGQVTISADKSISTAYLQWSSLKASDTAIYYCAREGIAATPFDYWGQGTLVTVSS
VL: EIVLTQSPATLSLSPGERATLSCRASQSVSSYLAWFQQKPGQAPRLLIYDASNRATGIPARFSGSGSGTDFTLTISSLEPEDFAVYYCQQRSNWPPTFGQGTKVEIK
notes: also called MICA.54; 24G11 (MICA.54)
Consider B2, for which the EC50 was 497 nM in [1] and 331 nM in [2].

B3: MICA.36 (antibody, V domains shown)
VH: QVQLVESGGGVVQPGRSLRLSCAASGFTFSNYAMHWVRQAPGEGLEWVALIWYDGSNKFYGDSVKGRFTISRDNSKNTLYLQMNSLSAEDTAVYYCAREGSGHYWGQGTLVTVSS
VL: AIQLTQSPSSLSASVGDRVTITCRASQGISSALAWYQQKPGKVPKSLIYDASSLESGVPSRFSGSGSGTDFTLTISSLQPEDFATYYCQQFNSYPITFGQGTRLEIK
notes: it says that the name implies no specific constant region; Radioiodinated in the Scatchard assay; also called MICA.36 antibody
As for B3, the figures for the “Kd of the total-binding curve” value in assay [3], in assay [4] and in assay [7] were 10.2 nM, 1.24 nM and 0.871 nM, respectively. Moreover, the Kd stood at 5.12 nM in assay [5], 1.36 nM in assay [6], 1.07 nM in assay [8] and 0.385 nM in [9].

B4: 19G6 (antibody, V domains shown)
VH: B3 VH
VL: B3 VL
notes: Hybridoma antibody from human IgG transgenic mice, parent of MICA.36; also called 19G6 mAb; hybridoma 19G6
As for B4, the EC50 is 8.21 nM in assay [1], 22 nM in assay [2] and 3.3 µg/mL in assay [10].

B5: MICA.2 (antibody, human IgG1, kappa, V domains shown)
VH: EVQLVESGGGLVQPGGSLRLSCAASGFTFSTYSMNWVRQAPGKGLEWVSYISYRSRTIYYADSVKGRFTISRDNARNSLYLQMNSLRDEDTAVYYCARWGYGSGGFDYWGQGTLVTVSS
VL: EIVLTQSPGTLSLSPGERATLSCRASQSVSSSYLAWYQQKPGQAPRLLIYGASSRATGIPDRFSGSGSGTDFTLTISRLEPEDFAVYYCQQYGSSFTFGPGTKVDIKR
notes: 3F5 variable regions on human IgG1f and human kappa constant regions, made in CHO-S cells; also called 3F5; recombinant antibody of 3F5
Take B5: the concentration giving a half-maximal response (EC50) came to 1.56 nM in assay [1] and 4.01 nM in [2].
